B1: wild-type FICD (amino acid residues 104-445) [human] / itself (parent)
chain: LEARAALNQALEMKRQGKREKAQKLFMHALKMDPDFVDALTEFGIFSEEDKDIIQADYLYTRALTISPYHEKALVNRDRTLPLVEEIDQRYFSIIDSKVKKVMSIPKGNSALRRVMEETYYHHIYHTVAIEGNTLTLSEIRHILETRYAVPGKSLEEQNEVIGMHAAMKYINTTLVSRIGSVTISDVLEIHRRVLGYVDPVEAGRFRTTQVLVGHHIPPHPQDVEKQMQEFVQWLNSEEAMNLHPVEFAALAHYKLVYIHPFIDGNGRTSRLLMNLILMQAGYPPITIRKEQRSDYYHVLEAANEGDVRPFIRFIAKCTETTLDTLLFATTEYSVALPEAQP

Variants of B1 are the subject of this test. The experiment in a line: size-exclusion chromatography (peak elution time vs protein concentration, monomer-dimer association fit). As to conditions: with itself; non-oxidised protein; parent: 55 nM. (In gel filtration, larger molecules generally elute earlier.)
As a reminder, the Kd is a measure of binding affinity in units of concentration. For the variant chain 1 A149C C318S, the Kd was determined as 831 nM.

Source of the values: paper PMC6826200.
